# From patent publication US20260209320A1
# T1: Peptide 5 (human)
# T1 sequence (peptide): QQQPPPPPPPPPPPQ
# T2: Peptide 19 (cyno)
# T2 sequence (peptide): PQAQPMLPQPQPPPP
# T3: Peptide 27 (cyno)
# T3 sequence (peptide): PPPPPPPPPPPPQLP
# T4: Peptide 23 (cyno)
# T4 sequence (peptide): QQQQQQQQQQPPPPP
# T5: Peptide 41 (mouse)
# T5 sequence (peptide): PPQPPPQGQPPPPPP
# T6: Peptide 14 (human, cyno)
# T6 sequence (peptide): PQPQPPPPPPPPPPG
# T7: Peptide 15 (human, cyno)
# T7 sequence (peptide): QPQPPPPPPPPPPGP
# T8: Peptide 6 (human)
# T8 sequence (peptide): QQPPPPPPPPPPPQL
# T9: Peptide 20 (cyno)
# T9 sequence (peptide): QAQPMLPQPQPPPPP
# Key:
# [1] = molecular target: T1, Peptide 5 (human); experiment: peptide microarray; Sp H; IgG 10 µg/ml
# [2] = molecular target: T2, Peptide 19 (cyno); experiment: peptide microarray; Sp C1; IgG 10 µg/ml
# [3] = molecular target: T3, Peptide 27 (cyno); experiment: peptide microarray; Sp C2; IgG 10 µg/ml
# [4] = molecular target: T4, Peptide 23 (cyno); experiment: peptide microarray; Sp C2; IgG 10 µg/ml
# [5] = molecular target: T2, Peptide 19 (cyno); experiment: peptide microarray; Sp C1; IgG 1 µg/ml
# [6] = molecular target: T1, Peptide 5 (human); experiment: peptide microarray; Sp H; IgG 1 µg/ml
# [7] = molecular target: T5, Peptide 41 (mouse); experiment: peptide microarray; Sp M; IgG 10 µg/ml
# [8] = molecular target: T5, Peptide 41 (mouse); experiment: peptide microarray; Sp M; IgG 1 µg/ml
# [9] = molecular target: T3, Peptide 27 (cyno); experiment: peptide microarray; Sp C2; IgG 1 µg/ml
# [10] = molecular target: T4, Peptide 23 (cyno); experiment: peptide microarray; Sp C2; IgG 1 µg/ml
# [11] = molecular target: T6, Peptide 14 (human, cyno); experiment: peptide microarray; Sp H; IgG 10 µg/ml
# [12] = molecular target: T7, Peptide 15 (human, cyno); experiment: peptide microarray; Sp H; IgG 10 µg/ml
# [13] = molecular target: T8, Peptide 6 (human); experiment: peptide microarray; Sp H; IgG 10 µg/ml
# [14] = molecular target: T9, Peptide 20 (cyno); experiment: peptide microarray; Sp C1; IgG 10 µg/ml
# [15] = molecular target: T9, Peptide 20 (cyno); experiment: peptide microarray; Sp C2 (second of two rows printed SEQ ID NO: 73); IgG 1 µg/ml
# [16] = molecular target: T9, Peptide 20 (cyno); experiment: peptide microarray; Sp C2 (first of two rows printed SEQ ID NO: 73); IgG 10 µg/ml
# [17] = molecular target: T9, Peptide 20 (cyno); experiment: peptide microarray; Sp C2 (second of two rows printed SEQ ID NO: 73); IgG 10 µg/ml
# [18] = molecular target: T6, Peptide 14 (human, cyno); experiment: peptide microarray; Sp C2; IgG 10 µg/ml
# [19] = molecular target: T7, Peptide 15 (human, cyno); experiment: peptide microarray; Sp C2; IgG 10 µg/ml
# [20] = molecular target: T9, Peptide 20 (cyno); experiment: peptide microarray; Sp C1; IgG 1 µg/ml
# [21] = molecular target: T6, Peptide 14 (human, cyno); experiment: peptide microarray; Sp H; IgG 1 µg/ml
# [22] = molecular target: T7, Peptide 15 (human, cyno); experiment: peptide microarray; Sp H; IgG 1 µg/ml
# [23] = molecular target: T8, Peptide 6 (human); experiment: peptide microarray; Sp H; IgG 1 µg/ml
# [24] = molecular target: T9, Peptide 20 (cyno); experiment: peptide microarray; Sp C2 (first of two rows printed SEQ ID NO: 73); IgG 1 µg/ml
# [25] = molecular target: T6, Peptide 14 (human, cyno); experiment: peptide microarray; Sp C2; IgG 1 µg/ml
# [26] = molecular target: T7, Peptide 15 (human, cyno); experiment: peptide microarray; Sp C2; IgG 1 µg/ml
binder,measurement,setting,value
"ATL_0005335 (antibody, V domains shown) VH: EVQLVESGGGLVKPGGSLRLSCAASGFTFNKAWMNWVRQAPGKGLEWVGRIKSGIDGGTTDYAAPVQGRFTISRDDSKNTVYLQMNSLNTEDTAVYYCIPPPYYYYYGLDVWGQGTTVTVSS VL: QSALTQPASVSGSPGQSITISCTGTSSDIGSYNLVSWYQQHPGNAPKPLIYEGSKRPSGVSARFSGSKSGNTASLTISGLQPEDEADYYCSSYAGFNTLVFGGGTKVTVL",corrected fluorescence intensity,[1],593
same,corrected fluorescence intensity,[2],453
same,corrected fluorescence intensity,[3],604
same,corrected fluorescence intensity,[4],524
same,corrected fluorescence intensity,[5],79
same,corrected fluorescence intensity,[6],0
same,corrected fluorescence intensity,[7],0
same,corrected fluorescence intensity,[8],256
same,corrected fluorescence intensity,[9],0
same,corrected fluorescence intensity,[10],0
"ATL_0005331 (antibody, V domains shown) VH: EVQLVESGGGLVKPGGSLRLSCAASGFTFNKAWMNWVRQAPGKGLEWVGRIKSGIDGGTTDYAAPVQGRFTISRDDSKNTVYLQMNSLNTEDTAVYYCIPPPYYYYYGLDVWGQGTTVTVSS VL: QSALTQPRSVSGSPGQSITISCTGTSSDVGSYNLVSWFQQHPGKAPKLIIYEVNKRPSGVPDRFSGSKSGNTASLTVSGLQAEDEADYYCGSYAGTNNVFGTGTKLTVL",corrected fluorescence intensity,[11],412
same,corrected fluorescence intensity,[12],382
same,corrected fluorescence intensity,[1],382
same,corrected fluorescence intensity,[13],397
same,corrected fluorescence intensity,[14],504
same,corrected fluorescence intensity,[15],51.5
same,corrected fluorescence intensity,[16],0
same,corrected fluorescence intensity,[17],0
same,corrected fluorescence intensity,[3],321
same,corrected fluorescence intensity,[18],464
same,corrected fluorescence intensity,[19],478
same,corrected fluorescence intensity,[20],178
same,corrected fluorescence intensity,[21],84
same,corrected fluorescence intensity,[22],134
same,corrected fluorescence intensity,[6],0
same,corrected fluorescence intensity,[23],0
same,corrected fluorescence intensity,[24],0
same,corrected fluorescence intensity,[9],99.2
same,corrected fluorescence intensity,[25],45.5
same,corrected fluorescence intensity,[26],50
